Results published in article PMC10628242, “Enzymatic β-elimination in natural product O- and C-glycoside deglycosylation” (Nature Communications, 2023).

Columns and labels:
[1] = substrate: O=C(CCc1ccc(O)cc1)c1c(O)cc(O)cc1O[C@@H]1O[C@H](COP(=O)(O)O)[C@@H](O)[C@H](O)[C@H]1O; test: initial rates, HPLC of phloretin release; format: biochemical, Thermotoga maritima; settings: HEPES pH 7.5, 0.5 mM MnSO4, 0.3 mM NAD+, 37 °C
[2] = substrate: O=C(CCc1ccc(O)cc1)c1c(O)cc(O)cc1O[C@@H]1O[C@H](CO)[C@@H](O)C(=O)[C@H]1O; test: initial rates, HPLC of phloretin release; format: biochemical, human intestinal bacterium PUE; settings: potassium phosphate pH 6.0, 5% DMSO, 37 °C, preincubated with 5 mM MnCl2
[3] = substrate: O=C1[C@@H](O)[C@H](c2c(O)ccc3c(=O)c(-c4ccc(O)cc4)coc23)O[C@H](CO)[C@H]1O; test: initial rates, HPLC of daidzein release; format: biochemical, human intestinal bacterium PUE; settings: potassium phosphate pH 6.0, 5% DMSO, 37 °C, preincubated with 5 mM MnCl2, substrate is a 2/3-keto mixture
[4] = substrate: O=C(CCc1ccc(O)cc1)c1c(O)cc(O)cc1O[C@@H]1O[C@H](COP(=O)(O)O)[C@@H](O)[C@H](O)[C@H]1O; test: initial rates, HPLC of phloretin release; format: biochemical, Bacillus subtilis; settings: HEPES pH 7.5, 0.5 mM MnSO4, 0.3 mM NAD+, 37 °C
[5] = substrate: O=C(CCc1ccc(O)cc1)c1c(O)cc(O)cc1O[C@@H]1O[C@H](CO)[C@@H](O)C(=O)[C@H]1O; test: initial rates, HPLC of phloretin release; format: biochemical, Agrobacterium radiobacter; settings: potassium phosphate pH 6.0, 5% DMSO, 37 °C, printed kcat is 10-fold above the one implied by printed kcat/Km (1.2 × 10^6 M^−1s^−1) and by 235 U/mg

B1: BglT (Thermotoga maritima MSB8) (protein)
chain: MRIAVIGGGSSYTPELVKGLLDISEDVRIDEVIFYDIDEEKQKIVVDFVKRLVKDRFKVLISDTFEGAVVDAKYVIFQFRPGGLKGRENDEGIPLKYGLIGQETTGVGGFSAALRAFPIVEEYVDTVRKTSNATIVNFTNPSGHITEFVRNYLEYEKFIGLCNVPINFIREIAEMFSARLEDVFLKYYGLNHLSFIEKVFVKGEDVTEKVFENLKLKLSNIPDEDFPTWFYDSVRLIVNPYLRYYLMEKKMFKKISTHELRAREVMKIEKELFEKYRTAVEIPEELTKRGGSMYSTAAAHLIRDLETDEGKIHIVNTRNNGSIENLPDDYVLEIPCYVRSGRVHTLSQGKGDHFALSFIHAVKMYERLTIEAYLKRSKKLALKALLSHPLGPDVEDAKDLLEEILEANREYVKLG
notes: N-terminal Strep-tag II; E. coli; 48,997 Da; GH4, Mn2+ and NAD+ dependent
- Km [1]: 300 µM
- kcat [1]: ~0.01 s⁻¹

B2: PuCGE (human intestinal bacterium PUE) (protein)
chain 1: MSNVKLGVTLYSFSTEYCQGKMTLEDCIRTAKELGAAGFEIVATQMIPSYPYVSDKFLGELKSICQYYDMEPVCYGANCDRGLRGDRNLTGDEMVAMAVRDIKNAHKMGCKVVREQWLMGPENFAKLAPFAEHYGVKVGIEVHNPETPITQSTKDYIAAIDKTGSKYLGLIPDFGCFANKPNKMNWDNALADGADKKLLEMARDMKYDNVPYDEAVKRLTAAGAKKVELTTMRDMYTFLTFKKDVSAELQGLKDMIPYCIHMHGKYHYMYENLQEAAIPYDDIMKIVSESDYDGYIVSEYEEYNSGHSIEMLRRHLKMMHNFVD
chain 2: MGLALRLNFVDVVCDDSLKNFWANGKKIGYQFDVRLSYYRGHFLSTIDEIGVKVDGVDVPAENISLCLDGKEYGVAELHDLVNVFWPIIEPATIKVFQPGGLSEEEHDVDFTLYFRSPYMALSETEYQSIDSCGSKRLNVQN
notes: heterodimer alpha (39,205 Da) + beta (18,313 Da), co-expressed from pET-Duet-1 in E. coli; N-terminal Strep-tag II; Mn2+ enzyme
- Km [2]: 0.6 (±0.1) mM
- kcat [2]: 1.20 (±0.05) s^−1
- Km [3]: 0.8 (±0.1) mM
- kcat [3]: 18 (±0.4) s^−1

B3: GlvA (Bacillus subtilis subsp. subtilis str. 168) (protein)
chain: MKKKSFSIVIAGGGSTFTPGIVLMLLDHLEEFPIRKLKLYDNDKERQDRIAGACDVFIREKAPDIEFAATTDPEEAFTDVDFVMAHIRVGKYAMRALDEQIPLKYGVVGQETCGPGGIAYGMRSIGGVLEILDYMEKYSPDAWMLNYSNPAAIVAEATRRLRPNSKILNICDMPVGIEDRMAQILGLSSRKEMKVRYYGLNHFGWWTSIQDQEGNDLMPKLKEHVSQYGYIPKTEAEAVEASWNDTFAKARDVQAADPDTLPNTYLQYYLFPDDMVKKSNPNHTRANEVMEGREAFIFSQCDMITREQSSENSEIKIDDHASYIVDLARAIAYNTGERMLLIVENNGAIANFDPTAMVEVPCIVGSNGPEPITVGTIPQFQKGLMEQQVSVEKLTVEAWAEKSFQKLWQALILSKTVPNARVARLILEDLVEANKDFWPELDQSPTRIS
notes: N-terminal Strep-tag II; E. coli; 51,960 Da; GH4, Mn2+ and NAD+ dependent
- Km [4]: 100 µM
- kcat [4]: ~0.02 s⁻¹

B4: AtOGE (Agrobacterium radiobacter) (protein)
chain: KLDDSKTLPIAAQMYTLRNAGTLEEQLAILNRAGVSAVETVDMQKVSASELNALLEKHKIKVISSHVPIDKLRGNLDEVITEQKAVGNPVVTVPFLKPEDRPKDAAGWTAFGKELGGYADKLSAAGLSMAYHNHDFEMVKFDGKTALELLLDAAGPKLQSELDVAWVARSGNDPAEFLGTLNGRVFAIHAKDDAPAGTAENERGFATIGTGVLDWKTILPAAKHAGAQWFILEHDLPLDAEAVVTKGNAFLSERLPTIQ
notes: N-terminal Strep-tag II kept in assays (cut by TEV only for crystallization); E. coli Lemo21(DE3); 29,895 Da subunit; Mn2+ enzyme; dimer in crystal
- Km [5]: 0.10 (±0.01) mM
